The target in this assay is 硫氧还蛋白(Thioredoxin，Trx). Kind of assay: indirect ELISA, Trx coated at 3 μg/ml, supernatant of transiently transfected CHO cells diluted 1000-fold, goat anti-mouse HRP. A general note: In an ELISA, binding on a coated surface is turned into a signal by an enzyme label.

Some results are limits rather than exact numbers.

Sequence of 硫氧还蛋白(Thioredoxin，Trx) (P0AA25 2-109): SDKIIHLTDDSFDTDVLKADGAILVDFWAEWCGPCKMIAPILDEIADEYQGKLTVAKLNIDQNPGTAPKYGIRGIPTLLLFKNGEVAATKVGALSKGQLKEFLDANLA

B1: 实施例4的硫氧还蛋白的单克隆抗体(WT) (antibody, mouse IgG1, kappa, V domains shown)
VH: EVKLEESGGGLVQPGGSMKLSCAASGFTFSDGWMDWVRQSPEKGLEWVAELRNDAHNHRTYYAESLKGRFTISRDDSQSNVFLQMNSLRAEDTGIYYCTKRVPEGTGSWFAYWGQGTLVTVSA
VL: DIVMTQSPSSLGMSVGQKVTMSCKSSQSILNSINQKNYLAWYQQRPGQSPKLLVYFGSTRDSGVPDRFIGSGSGTDFTLTISSLQAEDLADYFCQQNYTTPPTFGGGTKLEIKR
B1: the OD (450nm, 参考630nm) is above 1 OD.
